Experimental data published in US20240174727A1, “LONG-ACTING NATRIURETIC PEPTIDES AND USES THEREOF” (Eli Lilly and Company, priority 2022, published 2024).
Residue numbers refer to the chain shown, from its start. Numbered stars: 1 amine (or outer) side, 2 acyl side, 3 side chain; on linkers, the order of the positions; unused ones are H or OH. Bridge positions count the residues as written; N and C are the ends. Square brackets hold non-standard residues; d marks the D form. Ends that are not written are not given here. * marks the point of attachment. C20 diacid = O=C(O)CCCCCCCCCCCCCCCCCCC(=O)*; γGlu = O=C(O)[C@H](CCC(=O)[*:2])N[*:1]; 4Pal = N[C@@H](Cc1ccncc1)C(=O)O

T1: human NPRA (human, UniProt P16066 33-1061)
T1 sequence (looked up): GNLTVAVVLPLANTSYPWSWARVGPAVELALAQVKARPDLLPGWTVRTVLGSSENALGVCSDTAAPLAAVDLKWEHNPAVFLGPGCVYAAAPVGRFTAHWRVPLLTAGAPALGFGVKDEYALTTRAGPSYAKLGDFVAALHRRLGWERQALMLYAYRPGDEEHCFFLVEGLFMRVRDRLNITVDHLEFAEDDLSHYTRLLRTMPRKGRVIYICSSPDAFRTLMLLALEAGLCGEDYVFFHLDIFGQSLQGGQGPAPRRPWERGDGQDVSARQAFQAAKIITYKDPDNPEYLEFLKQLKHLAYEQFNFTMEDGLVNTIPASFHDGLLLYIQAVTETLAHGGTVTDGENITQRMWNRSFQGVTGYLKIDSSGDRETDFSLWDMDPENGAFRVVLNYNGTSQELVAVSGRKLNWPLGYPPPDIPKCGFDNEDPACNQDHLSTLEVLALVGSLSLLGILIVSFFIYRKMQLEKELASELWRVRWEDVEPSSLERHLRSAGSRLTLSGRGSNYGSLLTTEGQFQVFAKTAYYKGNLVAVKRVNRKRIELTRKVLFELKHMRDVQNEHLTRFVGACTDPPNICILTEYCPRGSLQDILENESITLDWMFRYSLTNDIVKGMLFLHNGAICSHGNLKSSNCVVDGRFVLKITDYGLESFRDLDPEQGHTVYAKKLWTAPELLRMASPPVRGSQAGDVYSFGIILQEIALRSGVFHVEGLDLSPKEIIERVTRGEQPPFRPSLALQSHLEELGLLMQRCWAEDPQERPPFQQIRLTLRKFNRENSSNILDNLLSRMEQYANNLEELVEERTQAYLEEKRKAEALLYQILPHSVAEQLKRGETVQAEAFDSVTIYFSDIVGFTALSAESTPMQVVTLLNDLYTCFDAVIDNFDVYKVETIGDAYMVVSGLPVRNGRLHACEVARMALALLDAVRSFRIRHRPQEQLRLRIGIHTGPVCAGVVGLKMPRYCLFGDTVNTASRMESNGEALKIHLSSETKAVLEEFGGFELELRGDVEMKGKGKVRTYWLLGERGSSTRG

T2: rat NPRA (rat, UniProt P18910 29-1057)
T2 sequence (looked up): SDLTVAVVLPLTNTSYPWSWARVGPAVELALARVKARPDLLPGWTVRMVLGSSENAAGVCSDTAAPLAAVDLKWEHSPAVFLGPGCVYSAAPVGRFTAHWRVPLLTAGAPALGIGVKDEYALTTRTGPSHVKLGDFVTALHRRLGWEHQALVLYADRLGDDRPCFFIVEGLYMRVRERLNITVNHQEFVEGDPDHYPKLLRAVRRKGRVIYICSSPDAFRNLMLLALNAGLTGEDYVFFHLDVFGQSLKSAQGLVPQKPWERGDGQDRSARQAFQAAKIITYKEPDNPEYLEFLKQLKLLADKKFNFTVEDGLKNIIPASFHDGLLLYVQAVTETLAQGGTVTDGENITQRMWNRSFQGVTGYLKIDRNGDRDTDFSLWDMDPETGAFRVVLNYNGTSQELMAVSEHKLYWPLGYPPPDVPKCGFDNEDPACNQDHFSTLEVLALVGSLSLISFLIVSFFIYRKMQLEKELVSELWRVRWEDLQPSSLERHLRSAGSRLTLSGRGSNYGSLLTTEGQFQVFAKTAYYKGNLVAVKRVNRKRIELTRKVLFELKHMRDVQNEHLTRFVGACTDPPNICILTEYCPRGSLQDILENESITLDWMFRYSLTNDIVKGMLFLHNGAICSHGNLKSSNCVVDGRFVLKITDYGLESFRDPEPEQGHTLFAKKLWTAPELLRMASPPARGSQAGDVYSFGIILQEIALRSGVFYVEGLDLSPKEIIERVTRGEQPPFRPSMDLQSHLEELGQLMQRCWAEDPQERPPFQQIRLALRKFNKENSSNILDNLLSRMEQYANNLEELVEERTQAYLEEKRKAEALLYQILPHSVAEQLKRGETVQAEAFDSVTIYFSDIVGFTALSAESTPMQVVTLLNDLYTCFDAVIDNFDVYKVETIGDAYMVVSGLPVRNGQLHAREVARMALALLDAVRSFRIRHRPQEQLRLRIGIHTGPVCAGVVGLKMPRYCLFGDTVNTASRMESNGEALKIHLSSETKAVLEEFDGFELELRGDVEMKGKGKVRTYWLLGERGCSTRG

B1: Example 24 (peptide)
peptide: {C20 diacid}-[γGlu]EKEKEKGS[4Pal]RRSSCFGGRIDRIGHQSGLGCPSFR[4Pal]-NH2
modifications: disulfide 15-31
SMILES: CC[C@H](C)[C@@H]1NC(=O)[C@H](CCCNC(=N)N)NC(=O)[C@H](CC(=O)O)NC(=O)[C@H]([C@@H](C)CC)NC(=O)[C@H](CCCNC(=N)N)NC(=O)CNC(=O)CNC(=O)[C@H](Cc2ccccc2)NC(=O)[C@@H](NC(=O)[C@H](CO)NC(=O)[C@H](CO)NC(=O)[C@H](CCCNC(=N)N)NC(=O)[C@H](CCCNC(=N)N)NC(=O)[C@H](Cc2ccncc2)NC(=O)[C@H](CO)NC(=O)CNC(=O)[C@H](CCCCN)NC(=O)[C@H](CCC(=O)O)NC(=O)[C@H](CCCCN)NC(=O)[C@H](CCC(=O)O)NC(=O)[C@H](CCCCN)NC(=O)[C@H](CCC(=O)O)NC(=O)CC[C@H](NC(=O)CCCCCCCCCCCCCCCCCCC(=O)O)C(=O)O)CSSC[C@@H](C(=O)N2CCC[C@H]2C(=O)N[C@@H](CO)C(=O)N[C@@H](Cc2ccccc2)C(=O)N[C@@H](CCCNC(=N)N)C(=O)N[C@@H](Cc2ccncc2)C(N)=O)NC(=O)CNC(=O)[C@H](CC(C)C)NC(=O)CNC(=O)[C@H](CO)NC(=O)[C@H](CCC(N)=O)NC(=O)[C@H](Cc2c[nH]cn2)NC(=O)CNC1=O
B2: Example 34 (peptide)
peptide: {C20 diacid}-[γGlu]EKEKEKGS[4Pal]KRSSCFGGKIDRIGHQSGLGCPSFRHKITAKEDE-NH2
modifications: disulfide 15-31
B3: Example 25 (peptide)
peptide: {C20 diacid}-[γGlu]EKEKEKGS[4Pal]RRSSCFGGRIDRIGHQSGLGCPSFRHRITAREDKQGYA-NH2
modifications: disulfide 15-31
B4: Example 26 (peptide)
peptide: {C20 diacid}-[γGlu]EKEKEKGS[4Pal]RRSSCFGGRIDRIGHQSGLGCPSFRHRITAREDKQGEA-NH2
modifications: disulfide 15-31
B5: Example 22 (peptide)
peptide: {C20 diacid}-[γGlu]EKEKEKGS[4Pal]RRSSCFGGRIDRIGAQSGLGCPSFRH-NH2
modifications: disulfide 15-31
SMILES: CC[C@H](C)[C@@H]1NC(=O)[C@H](CCCNC(=N)N)NC(=O)[C@H](CC(=O)O)NC(=O)[C@H]([C@@H](C)CC)NC(=O)[C@H](CCCNC(=N)N)NC(=O)CNC(=O)CNC(=O)[C@H](Cc2ccccc2)NC(=O)[C@@H](NC(=O)[C@H](CO)NC(=O)[C@H](CO)NC(=O)[C@H](CCCNC(=N)N)NC(=O)[C@H](CCCNC(=N)N)NC(=O)[C@H](Cc2ccncc2)NC(=O)[C@H](CO)NC(=O)CNC(=O)[C@H](CCCCN)NC(=O)[C@H](CCC(=O)O)NC(=O)[C@H](CCCCN)NC(=O)[C@H](CCC(=O)O)NC(=O)[C@H](CCCCN)NC(=O)[C@H](CCC(=O)O)NC(=O)CC[C@H](NC(=O)CCCCCCCCCCCCCCCCCCC(=O)O)C(=O)O)CSSC[C@@H](C(=O)N2CCC[C@H]2C(=O)N[C@@H](CO)C(=O)N[C@@H](Cc2ccccc2)C(=O)N[C@@H](CCCNC(=N)N)C(=O)N[C@@H](Cc2c[nH]cn2)C(N)=O)NC(=O)CNC(=O)[C@H](CC(C)C)NC(=O)CNC(=O)[C@H](CO)NC(=O)[C@H](CCC(N)=O)NC(=O)[C@H](C)NC(=O)CNC1=O
B6: rat ANP (amidated) (peptide)
peptide: SLRRSSCFGGRIDRIGAQSGLGCNSFRY-NH2
modifications: disulfide 7-23; N-terminus assumed
SMILES: CC[C@H](C)[C@@H]1NC(=O)[C@H](CCCNC(=N)N)NC(=O)[C@H](CC(=O)O)NC(=O)[C@H]([C@@H](C)CC)NC(=O)[C@H](CCCNC(=N)N)NC(=O)CNC(=O)CNC(=O)[C@H](Cc2ccccc2)NC(=O)[C@@H](NC(=O)[C@H](CO)NC(=O)[C@H](CO)NC(=O)[C@H](CCCNC(=N)N)NC(=O)[C@H](CCCNC(=N)N)NC(=O)[C@H](CC(C)C)NC(=O)[C@@H](N)CO)CSSC[C@@H](C(=O)N[C@@H](CC(N)=O)C(=O)N[C@@H](CO)C(=O)N[C@@H](Cc2ccccc2)C(=O)N[C@@H](CCCNC(=N)N)C(=O)N[C@@H](Cc2ccc(O)cc2)C(N)=O)NC(=O)CNC(=O)[C@H](CC(C)C)NC(=O)CNC(=O)[C@H](CO)NC(=O)[C@H](CCC(N)=O)NC(=O)[C@H](C)NC(=O)CNC1=O
B7: Example 33 (peptide)
peptide: {C20 diacid}-[γGlu]EKEKEKGS[4Pal]KRSSCFGGKIDRIGHQSGLGCPSFRHGPSSGAPPPS-NH2
modifications: disulfide 15-31
B8: Example 29 (peptide)
peptide: {C20 diacid}-[γGlu]EKEKEKGS[4Pal]RRSSCFGGRIGRIGHQSGLGCPSFRHGGPSSGAPPPS-NH2
modifications: disulfide 15-31
B9: Example 30 (peptide)
peptide: XEKEKEKGSXKRSSCFGGKIDRIGHQSGLGCPSFRHGGPSSGAPPPS
modifications: HOOC-(CH2)18-CO-(γGlu)-EKEKEKGS-4Pal-KRSS[CFGGKIDRIGHQSGLGC]PSFRHGGPSSGAPPPS-NH2; disulfide linkage between the bracketed Cys
B10: Example 38 (peptide)
peptide: B9 peptide with K11R, K19R, Q26Y
modifications: HOOC-(CH2)18-CO-(γGlu)-EKEKEKGS-4Pal-RRSS[CFGGRIDRIGHYSGLGC]PSFRHGGPSSGAPPPS-NH2; disulfide linkage between the bracketed Cys
B11: Example 57 (peptide)
peptide: B9 peptide with S9E, X10K, K11P, K19R, Q26Y
modifications: HOOC-(CH2)18-CO-(γGlu)-EKEKEKGEKPRSS[CFGGRIDRIGHYSGLGC]PSFRHGGPSSGAPPPS-NH2; thioacetal linkage between the bracketed Cys
B12: Example 55 (peptide)
peptide: B9 peptide with S9E, X10K, K11P, K19R, Q26Y
modifications: HOOC-(CH2)18-CO-(γGlu)-EKEKEKGEKPRSS[CFGGRIDRIGHYSGLGC]PSFRHGGPSSGAPPPS-NH2; disulfide linkage between the bracketed Cys
B13: Example 31 (peptide)
peptide: B9 peptide with H25X
modifications: HOOC-(CH2)18-CO-(γGlu)-EKEKEKGS-4Pal-KRSS[CFGGKIDRIG-Dap-QSGLGC]PSFRHGGPSSGAPPPS-NH2; disulfide linkage between the bracketed Cys
B14: Example 37 (peptide)
peptide: XEKEKEKGSXRRSSCFGGRIDRIGHQSGLGCPSFRHGPSSGAPPPS
modifications: HOOC-(CH2)18-CO-(γGlu)-EKEKEKGS-4Pal-RRSS[CFGGRIDRIGHQSGLGC]PSFRH-GPSSGAPPPS-NH2; disulfide linkage between the bracketed Cys
B15: Example 5 (peptide)
peptide: XEKEKEKGEKPRSSCFGKRIDRIGHYSGLGCPSFRHGSPSSGAPPPS
modifications: HOOC-(CH2)18-CO-(γGlu)-EKEKEKGEKPRSS[CFGKRIDRIGHYSGLGC]PSFRHGSPSSGAPPPS-NH2; thioacetal linkage between the bracketed Cys

These binders were tested against T1, human NPRA (assay: cell-based or functional assay).

Binder | cGMP Assay (EC50, pM) w/BSA [pM] | cGMP Assay (EC50, pM) w/Casein [pM]
B1 | 21000 | 560
B2 | 26100 | 291
B3 | 12000 | 436
B4 | 17800 | 682
B5 | 25100 | 840
B6 | 138 | 128
B7 | 22200 | 199
B8 | 32200 | 482

Each binder was assayed against T2, rat NPRA (assay: cell-based or functional assay).

Binder | cGMP Assay (EC50, pM) w/BSA [pM] | cGMP Assay (EC50, pM) w/Casein [pM]
B1 | 66100 | 703
B2 | 422000 | 1200
B9 | – | 1130
B10 | 40500 | –
B11 | – | 9500
B12 | – | 493
B13 | – | 12200
B3 | 57300 | 654
B14 | 84600 | –
B15 | 276000 | 1130
B4 | 119000 | 803
B5 | 192000 | 1690
B6 | 114 | 73
B7 | 112000 | 383
B8 | 1.91e+06 | 16800
